Our source for the Km, kcat and kcat/Km values is publication PMC4357238, “Catalytic surface radical in dye-decolorizing peroxidase: a computational, spectroscopic and site-directed mutagenesis study” (Biochemical Journal, 2015).

What all share (type): biochemical, Auricularia auricula-judae
Substrate in series [1]: Nc1c(N=Nc2ccc(S(=O)(=O)CCOS(=O)(=O)O)cc2)c(S(=O)(=O)O)cc2cc(S(=O)(=O)O)c(N=Nc3ccc(S(=O)(=O)CCOS(=O)(=O)O)cc3)c(O)c12
The series is described as follows: steady-state kinetics, absorbance decrease, Michaelis-Menten fit. The settings on record: single set of constants, 0.1 mM H2O2, 10 nM enzyme, 0.1 M tartrate pH 3, 25°C, pH 3.0. From the text:
(§1) steady-state kinetics, absorbance decrease, Michaelis-Menten fit on DyP (dye-decolorizing peroxidase; mature DyP-I) of Auricularia auricula-judae

Substrate in series [2]: Nc1c(S(=O)(=O)O)cc(Nc2cccc(S(=O)(=O)CCOS(=O)(=O)O)c2)c2c1C(=O)c1ccccc1C2=O
The series is described as above. The settings on record: 0.1 mM H2O2, 10 nM enzyme, 0.1 M tartrate pH 3.5, 25°C.
Source text: as §1

Substrate in series [3]: CCn1c(=NN=c2sc3cc(S(=O)(=O)O)ccc3n2CC)sc2cc(S(=O)(=O)O)ccc21
In words: steady-state kinetics, absorbance increase, Michaelis-Menten fit. The settings on record: 0.1 mM H2O2, 10 nM enzyme, 0.1 M tartrate pH 3, 25°C. From the text:
(§2) steady-state kinetics, absorbance increase, Michaelis-Menten fit on DyP (dye-decolorizing peroxidase; mature DyP-I) of Auricularia auricula-judae

Substrate in series [4]: COc1cccc(OC)c1O
Described as above. The settings on record: 0.1 mM H2O2, 10 nM enzyme, 0.1 M tartrate pH 3, 25°C.
Source text: as §2

Substrate in series [5]: COc1ccc(CO)cc1OC
Described as above. The settings on record: single set of constants, 0.1 mM H2O2, 100 nM enzyme, 0.1 M tartrate pH 2.5, 25°C, pH 2.5.
Source text: as §2

[6] abbreviates: single set (high-turnover site, haem channel blocked), pH 3.5.
The mark [7] stands for this setting: single set (high-turnover site).
Setting [8] is: two-site kinetics: high-affinity low-turnover site.
Where [9] appears, read: single set (low-turnover site), pH 3.5.
Setting [10] is: two-site kinetics: high-affinity low-turnover site, pH 3.0.
Where [11] appears, read: single set (low-turnover site), pH 3.0.
[12] abbreviates: two-site kinetics: high-affinity low-turnover site, pH 3.5.

Numbering of substitutions follows the chain as printed. Names may count otherwise.

B1: DyP (dye-decolorizing peroxidase; mature DyP-I) of Auricularia auricula-judae (Auricularia auricula-judae; G230L) (protein)
chain: ATSLNTDDIQGDILVGMHKQKQLFYFFAINDPATFKTHLASDIAPVVASVTQLSNVATQPLVALNIAFSNTGLLALGVTDNLGDSLFANGQAKDATSFKESTSSWVPQFAGTGIHGVIILASDTTDLIDQQVASIESTFGSSISKLYSLSASIRPGNEAGHEMFGFLDLIAQPAINGFNTPLPGQNIVDAGVIITGATNDPITRPSWAVGGSFLAFRQLEQLVPEFNKYLLDNAPAGSGSLQARADLLGARMVGRWKSGAPIDLTPTADDPALGADAQRNNNFTYSHAGFDLGSDQSHCPFSAHIRKTRPRADLGGSLTPPNLSAGANSIMRSGIPYGPEVTSAESASNTTTQERGLAFVAYQAQLSQGFHFLQQTWADNANFPPGKTPATVGLDPIIGQNNGQPRVVNGLLPSNSSASLSIPQFVVSHGGEYFFSPPISAIGGRLSA
notes: variants made on the same plasmid
As for B1, the Km is 5.8 ± 0.6 µM in series [1], 10 ± 3 µM in series [2] (setting [6]), 25 ± 2 µM in series [3] (setting [7]) and 6.0 ± 0.4 µM in series [4] (setting [8]). Moreover, the kcat in series [1] came out at 1.2 ± 0.1 s⁻¹; in series [2] (setting [6]), 106 ± 9 s⁻¹; in series [3] (setting [7]), 96 ± 2 s⁻¹; in series [4] (setting [8]) it was 9.9 ± 0.2 s⁻¹. Moreover, the kcat/Km in series [1] turned out to be 217000 ± 13000 M⁻¹ s⁻¹; in series [2] (setting [6]), 1.24e+07 ± 3e+06 M⁻¹ s⁻¹; in series [3] (setting [7]), 3.77e+06 ± 270000 M⁻¹ s⁻¹; in series [4] (setting [8]), 1.6e+06 ± 70000 M⁻¹ s⁻¹.

B2: DyP (dye-decolorizing peroxidase; mature DyP-I) of Auricularia auricula-judae (Auricularia auricula-judae; W438S) (protein)
chain: B1 chain with L169G, W377S
notes: as for B1
In the case of B2, the Km in series [1] is 10.6 ± 1.0 µM; in series [2] (setting [9]), 3.9 ± 0.6 µM; in series [3] (setting [10]), 30.0 ± 0.5 µM; in series [5] it was 7360 ± 1270 µM; in series [4] (setting [11]), 3560 ± 250 µM. Besides, the kcat in series [1] came to 0.70 ± 0.02 s⁻¹; in series [2] (setting [9]) it was 8.9 ± 0.6 s⁻¹; in series [3] (setting [10]), 14.0 ± 1.0 s⁻¹; in series [5] it was 0.23 ± 0.01 s⁻¹; in series [4] (setting [11]) it was 6.4 ± 0.1 s⁻¹. In addition, the kcat/Km in series [1] came out at 68000 ± 4000 M⁻¹ s⁻¹; in series [2] (setting [9]), 2.24e+06 ± 240000 M⁻¹ s⁻¹; in series [3] (setting [10]), 472000 ± 61000 M⁻¹ s⁻¹; in series [5], 32 ± 3 M⁻¹ s⁻¹; in series [4] (setting [11]), 1800 ± 100 M⁻¹ s⁻¹.

B3: DyP (dye-decolorizing peroxidase; mature DyP-I) of Auricularia auricula-judae (Auricularia auricula-judae) (protein)
chain: B1 chain with L169G
notes: as for B1
Turning to B3, the Km turned out to be 15.6 ± 2.0 µM in series [1], 14.0 ± 2.0 µM in series [2] (setting [12]), 3.1 ± 1.1 µM in series [3] (setting [8]) and 6.0 ± 0.5 µM in series [4] (setting [8]). In addition, the kcat worked out at 4.8 ± 0.2 s⁻¹ in series [1], 32.0 ± 3.0 s⁻¹ in series [2] (setting [12]), 7.4 ± 1.4 s⁻¹ in series [3] (setting [8]) and 8.0 ± 0.2 s⁻¹ in series [4] (setting [8]). The kcat/Km in series [1] is 310000 ± 20000 M⁻¹ s⁻¹; in series [2] (setting [12]), 2.23e+06 ± 200000 M⁻¹ s⁻¹; in series [3] (setting [8]), 2.37e+06 ± 420000 M⁻¹ s⁻¹; in series [4] (setting [8]), 1.35e+06 ± 100000 M⁻¹ s⁻¹.

B4: DyP (dye-decolorizing peroxidase; mature DyP-I) of Auricularia auricula-judae (Auricularia auricula-judae; Y398S) (protein)
chain: B1 chain with L169G, Y337S
notes: as for B1
For the protein B4, in series [2] (setting [8]), the Km was 7.4 ± 2.3 µM, the kcat turned out to be 26.0 ± 1.9 s⁻¹ and the kcat/Km came to 3.37e+06 ± 350000 M⁻¹ s⁻¹.
